Assay results taken from patent US7407933B2, “Drug containing angiotensin convertase” (priority 2002, dated 2008).
Changes are numbered by the printed parent chain. In names and notes the source's numbering stands.

Assays:
sperm-zona binding = experiment: Sperm-egg (zona pellucida) binding assay; assay type: cell-based, mouse
Procedure: All gametes were placed and handled within TYH medium. […] were isolated from wild-type mice and ACE knockout mice, and dispersed in 250 μl of medium. After sperms were floated for 15 minutes, transferred to 1.5 ml medium and incubated for at least 1 hour. Eggs were separated from superovulated mice and treated with 1 mg/ml of hyaluronidase (Sigma) on THY medium for removing laminated cells. Incubated sperms (approximately 2.0×10^6 sperm/ml) were treated for 90 min with 0.2 U wild-type ACE (ACE-WT), 0.2 U ACE-E414D, 1.0 IU/ml PI-PLC, or […] PI-PLC with 4 mM inositol monophosphate (Sigma), 4 mM inositol monophosphate, and buffer (PBS) alone. For the sperm-egg (zona pellucida) binding assay, gametes were co-incubated in a TYH droplet covered with mineral oil for 1 h, washed gently in PBS and fixed with 4% paraformaldehyde/PBS. The oocytes were visualized at 200× under a light microscope (Olympus) and the number of sperms was counted at a focus showing the widest diameter of eggs.
In addition, the effect of ACE on sperm-egg binding was examined. That is, Epididymal sperms of both wild-type and knockout mice were treated with either wild-type or peptidase-inactivated (E414D) ACEs or PI-PLC and then incubated with unfertilized eggs from C57BL/6 mice. These treatments had no effects on wild-type sperm-zona binding.

PLAP = PLAP conversion assay (GPI-anchored protein releasing activity); assay type: biochemical; conditions: immunoblotting of PLAP
Procedure: This assay uses a nature of nonionic detergent, TritonX-114, which distributes water-soluble molecules and hydrophobia molecules soluble to detergent. By the PLAP conversion assay, GPI-anchored protein releasing activity in a course of purification was monitored. PLAP was prepared by expressing cDNA in COS7 cells, extracted by buffer containing 20 mM Tris, pH 8.0, 150 mM NaCl, 1% TritonX-114, Complete™ protease-inhibitor and the detergent-soluble phase was collected after partitioning at 37° C. PLAP was purified by DEAE-cellulose ionic exchange liquid chromatography (LC) (elution buffer: […] tris pH8.0, 0.1% TritonX-100, 0 mM-500 mM NaCl gradient) and anti-PLAP antibody column (antibody: rabbit anti-PLAP polyclonal antibody, Biomeda; Column: Hitrap NHS-Activated HP, Amercham Bioscience; elution buffer: 100 mM glycine pH2.8). Using detergent-soluble PLAP protein as substrate performed assay. PLAP activity was measured with an alkaline phosphatase detection kit (Nacalai tesque). The conversion reaction was performed in 100 mM Tris, pH 7.5, 5 mM CaCl2, 150 mM NaCl and 0.3 IU/ml of PLAP for 90 min at 37° C. The reaction was stopped by adding TritonX-114 at a final concentration of 2% and 1 mM EDTA, followed by microcentrifugation at 25° C. The water-soluble phase was collected and PLAP activity was measured by the alkaline phosphatase detection kit. […]

[1] = Peptidase activity of ACE; assay type: biochemical; conditions: relative to wild-type ACE
Procedure: FIG. 7 is a measurement of peptidase activity (Pase). The E414D is a mutant that Glu414 in the peptidase active site was substituted to Asp. WT, wild-type ACE-T. Procedures were accorded with the description of Kasahara and Ashihara, Clin Chem. 27:1922-1925.
The obtained PCR product encodes a FLAG-tagged version of the soluble testicular isoform. The cDNA for peptidase-inactivated mutant with amino acid Glu414 replaced by Asp was prepared by the site-directed mutagenesis with the mutation promer: 5′-cttggtgatag cgcaccacga tatgggccac atccagtatt tcatgca-3′ (SEQ ID NO: 3). The culture supernatants of COS7 cells transfected with the ACE cDNAs were collected and recombinant ACEs were purified by anti-FLAG M2-agarose affinity column (Sigma). The somatic isoform of ACE (ACE-S) from rabbit lung (Sigma A-6778) was also used according to the manufacturer's protocol. The peptidase activity of the ACE was measured by the reported method (Kawahara and Ashihara, Clin. Chem. 27:1922-1925, 1981). 1.9. FACS Analysis

E-cadherin = experiment: FACS analysis of shedding, E-cadherin on F9 cells; assay type: cell-based, mouse
EGFP-GPI [2] = experiment: FACS analysis of shedding, EGFP-GPI on F9 cells; assay type: cell-based; conditions: without filipin pre-treatment
CD59 = experiment: FACS analysis of shedding, CD59 on HeLa cells; assay type: cell-based, human; conditions: filipin pre-treated HeLa cells
EGFP-GPI [3] = experiment: Radiolabeling analysis of released EGFP-GPI from F9 cells; assay type: cell-based; conditions: filipin-pretreated F9 cells
Procedure: F9 cells expressing EGFP-GPI were metabolically labeled with 0.2 mCi/ml of [^32P]-orthophosphoric acid (Amersham Bioscience) or 0.1 mCi/ml of [^3H]-ethanolamine (Amersham Bioscience) for 16 h. Filipin-pretreated cells were incubated with 0.5 μM of ACE, 1.0 IU/ml of PI-PLC or 10% lysate of mouse submaxillary gland containing mouse glandular kallikrein (mGK; enzyme digesting EGFP at near C-terminus) for 1 h at 37° C. Released EGFP was immunoprecipitated with anti-GFP antibody, subjected to SDS-PAGE and transferred onto nitrocellulose membrane. The quantity of EGFP-GPI protein was evaluated by measuring the density of bands detected on EGFP immunoblotting by using a densitometer (Molecular Device) and radioactivity of the cognate band was determined by a liquid scintillation counter.
Therefore, the F9 cells expressing EGFP-GPI were metabolically labeled with [^32P]-phosphate or [^3H]-ethanolamine, and treated with ACE, PI-PLC or mGK. Then, the released proteins from the cells were applied to EGFP immunoblotting, to measure radioactivity for each band (FIG. 15). Measurements were performed at least four times, and the almost same results were obtained. Although the released EGFP-GPI products with ^32P or ^3H labeling were not detected by mGK treatments, both were detected by ACE treatment or PI-PLC treatment, indicating the presence of a portion of GPI-anchor structure in the ACE-released molecules.

prion protein = conditions: HEK293 cells, 1.0 U/ml
DAF = conditions: erythrocyte having prominent acylation; cited from earlier work

O=P(O)(O)O[C@@H]1[C@@H](O)[C@H](O)[C@@H](O)[C@H](O)[C@@H]1O [inositol monophosphate, reference compound]
inhibition of the PI-PLC effect on egg binding of ACE knockout sperm (sperm-zona binding; 4 mM with PI-PLC): inhibition

B1: ACE (E414D): peptidase-inactivated mutant ACE with amino acid Glu414 replaced by Asp (protein, listed as Mus musculus)
chain: MGQGWATPGLPSFLFLLLCCGHHLLVLSQVATDHVTANQGITNQATTRSQTTTHQATIDQTTQIPNLETDEAKADRFVEEYDRTAQVLLNEYAEANWQYNTNITIEGSKILLEKSTEVSNHTLKYGTRAKTFDVSNFQNSSIKRIIKKLQNLDRAVLPPKELEEYNQILLDMETTYSLSNICYTNGTCMPLEPDLTNMMATSRKYEELLWAWKSWRDKVGRAILPFFPKYVEFSNKIAKLNGYTDAGDSWRSLYESDNLEQDLEKLYQELQPLYLNLHAYVRRSLHRHYGSEYINLDGPIPAHLLGNMWAQTWSNIYDLVAPFPSAPNIDATEAMIKQGWTPRRIFKEADNFFTSLGLLPVPPEFWNKSMLEKPTDGREVVCHPSAWDFYNGKDFRIKQCTSVNMEDLVIAHHDMGHIQYFMQYKDLPVTFREGANPGFHEAIGDIMALSVSTPKHLYSLNLLSTEGSGYEYDINFLMKMALDKIAFIPFSYLIDQWRWRVFDGSITKENYNQEWWSLRLKYQGLCPPVPRSQGDFDPGSKFHVPANVPYVRYFVSFIIQFQFHEALCRAAGHTGPLHKCDIYQSKEAGKLLADAMKLGYSKPWPEAMKLITGQPNMSASAMMNYFKPLTEWLVTENRRHGETLGWPEYNWAPNTARAEGSTAESNRVNFLGLYLEPQQARVGQWVLLFLGVALLVATVGLAHRLYNIRNHHSLRRPHRGPQFGSEVELRHSLAHRLYNIRNHHSLRRPHRGPQFGSEVELRHS
sperm-zona binding of ACE knockout sperm (sperm-zona binding; epididymal sperm of ACE knockout mice, eggs from C57BL/6 mice): vigorously restored
GPI-anchored protein releasing activity compared with wild-type ACE (PLAP): not changed
peptidase activity compared with wild-type ACE [1]: less than 1/1000

B2: ACE: angiotensin-converting enzyme, isoform not named at the place (ACE-S in the FACS tests of b107/b108) (protein, listed as Mus musculus)
chain: B1 chain with D414E
effect on the transmembrane protein E-cadherin (E-cadherin): no effect
effect on EGFP-GPI expression (EGFP-GPI [2]): little effect
dose dependence of CD59 shedding (CD59): dose-dependent
radioactivity of released products compared with PI-PLC-released molecules, labeled on the ethanolamine (EGFP-GPI [3]; 3H ethanolamine label): a half
radioactivity of released products compared with PI-PLC-released molecules, labeled on the phosphate (EGFP-GPI [3]; 32P phosphate label): about one-third
released EGFP-GPI products with 32P or 3H labeling (EGFP-GPI [3]): detected
shedding of prion protein from cell surface (prion protein): efficiently shed

B3: GPI-PLD: only mammalian enzyme known so far showing GPI-anchor-cleaving activity (protein, UniProt P80108 24-840, looked up)
Phosphatidylinositol-glycan-sp …: CGLSTHVEIGHRALEFLQLHNGRVNYRELLLEHQDAYQAGIVFPDCFYPSICKGGKFHDVSESTHWTPFLNASVHYIRENYPLPWEKDTEKLVAFLFGITSHMAADVSWHSLGLEQGFLRTMGAIDFHGSYSEAHSAGDFGGDVLSQFEFNFNYLARRWYVPVKDLLGIYEKLYGRKVITENVIVDCSHIQFLEMYGEMLAVSKLYPTYSTKSPFLVEQFQEYFLGGLDDMAFWSTNIYHLTSFMLENGTSDCNLPENPLFIACGGQQNHTQGSKMQKNDFHRNLTTSLTESVDRNINYTERGVFFSVNSWTPDSMSFIYKALERNIRTMFIGGSQLSQKHVSSPLASYFLSFPYARLGWAMTSADLNQDGHGDLVVGAPGYSRPGHIHIGRVYLIYGNDLGLPPVDLDLDKEAHRILEGFQPSGRFGSALAVLDFNVDGVPDLAVGAPSVGSEQLTYKGAVYVYFGSKQGGMSSSPNITISCQDIYCNLGWTLLAADVNGDSEPDLVIGSPFAPGGGKQKGIVAAFYSGPSLSDKEKLNVEAANWTVRGEEDFSWFGYSLHGVTVDNRTLLLVGSPTWKNASRLGHLLHIRDEKKSLGRVYGYFPPNGQSWFTISGDKAMGKLGTSLSSGHVLMNGTLKQVLLVGAPTYDDVSKVAFLTVTLHQGGATRMYALTSDAQPLLLSTFSGDRRFSRFGGVLHLSDLDDDGLDEIIMAAPLRIADVTSGLIGGEDGRVYVYNGKETTLGDMTGKCKSWITPCPEEKAQYVLISPEASSRFGSSLITVRSKAKNQVVIAAGRSSLGARLSGALHVYSLGSD
release of DAF from the intact erythrocyte (DAF): could not release
